{"source": "patent US5770691A", "about": "“Discriminatory substrates for MMP hydrolysis” (Regents of the University of Minnesota, priority 1995, dated 1998)", "origin": "cited, not measured here", "molecules": {"B1": {"name": "Human α1 -antichymotrypain: protease inhibitor cleaved by MMP-3 at Ala360-Leu361 (protein, UniProt P01011 24-423, looked up)", "Alpha-1-antichymotrypsin": "HPNSPLDEENLTQENQDRGTHVDLGLASANVDFAFSLYKQLVLKAPDKNVIFSPLSISTALAFLSLGAHNTTLTEILKGLKFNLTETSEAEIHQSFQHLLRTLNQSSDELQLSMGNAMFVKEQLSLLDRFTEDAKRLYGSEAFATDFQDSAAAKKLINDYVKNGTRGKITDLIKDLDSQTMMVLVNYIFFKAKWEMPFDPQDTHQSRFYLSKKKWVMVPMMSLHHLTIPYFRDEELSCTVVELKYTGNASALFILPDQDKMEEVEAMLLPETLKRWRDSLEFREIGELYLPKFSISRDYNLNDILLQLGIEEAFTSKADLSGITGARNLAVSQVVHKAVLDVFEEGTEASAATAVKITLLSALVETRTIVRFNRPFLMIIVPTDTQNIFFMSKVTNPKQA"}}, "biological_target": "MMP-3 (Homo sapiens, UniProt P08254)", "sequence (P08254 100-477, species assumed)": "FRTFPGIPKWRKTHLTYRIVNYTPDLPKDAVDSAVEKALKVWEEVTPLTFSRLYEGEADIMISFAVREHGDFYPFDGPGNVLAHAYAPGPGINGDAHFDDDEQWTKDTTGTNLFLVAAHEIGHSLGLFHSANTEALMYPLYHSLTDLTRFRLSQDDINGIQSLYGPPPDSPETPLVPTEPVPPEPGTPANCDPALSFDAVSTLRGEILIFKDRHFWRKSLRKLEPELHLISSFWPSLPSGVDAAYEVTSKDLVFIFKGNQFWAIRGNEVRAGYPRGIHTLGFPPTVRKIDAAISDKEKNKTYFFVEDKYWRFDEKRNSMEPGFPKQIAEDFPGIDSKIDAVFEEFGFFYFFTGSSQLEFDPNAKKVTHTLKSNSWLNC", "conditions": "MMP-3 cleavage, determined at 37° C."}
{"molecule": "B1", "values": [{"measurement": "kcat /Kb", "result": "35,000 S^-1 M^-1"}]}
